According to the RNAGym collection of RNA variant scans (doi:10.1073/pnas.2313332121):
Fewer inactive variants are shown than the library holds.

B1: TPR 5TU (parent)
chain: GGAUCUUCUCGAUCUAACAAAAAAGACAAAUCUGCCACAAAGCUUGAGAGCAUCUUCGGAUGCAGAGGCGGCAGCCUUCGGUGGCGCGAUAGCGCCAACGUUCUCAACUAUGACACGCAAAACGCGUGCUCCGUUGAAUGGAGUUUAUCAUG

Variants of: B1
Assay: polymerase ribozyme fitness, log enrichment relative to wild type (log ratio); higher = more active; in vitro selection for triplet polymerase activity
Method in brief: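 Each subunit of a heterodimeric triplet polymerase ribozyme was mutagenized into a library by PCR, transcribed, and subjected to one round of in vitro selection, run in triplicate. Libraries were annealed with a biotinylated primer, the partner subunit and triplets, incubated frozen at −7 °C, and extended constructs were gel-excised, captured on streptavidin beads and recovered by RT-PCR. Input and output libraries were sequenced on Illumina, keeping genotypes with ≥10 input reads and ≥1 read per output. Fitness is log base 2 of genotype enrichment divided by wild-type enrichment, from inverse-variance-weighted replicate averages.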

Point of comparison: A12U A47G C118G, “polymerase ribozyme fitness (log ratio)” value -1.11. Against it:
- U13C C18U — higher, 0.127
- A12U U55A C57G C103A G128U A147C — lower, -4.11
- A12U U31G A60G G83C — lower, -1.56
- A12G C116G G126U — higher, 1.17
- A12G U15A U55G C87G C99G C114A A119U — lower, ≤ -4.2
- A12U C85U G136U — lower, -3.16
- U13C C54U C87U — lower, -1.35
- U13A A16G G86U — lower, -2.89
- A12G U53A — higher, -0.69
- A12U G34C G46A G83A A121U G141U — lower, ≤ -4.2
- U13C A19U U55A G83A U111G — lower, ≤ -4.2
- A12U A39U A73U G80A C93A G141U — lower, ≤ -4.2
- A12U A89U G94U C108G C118U A120C A122C A137C — lower, ≤ -4.2
- A12U A21U C87G C99U C125U — lower, ≤ -4.2
- A12U A122U A147C — higher, -0.484
- U13A C35U C57U — lower, -1.42
- U13A A23G C27U A28C C54U C85U C93U A115C C116G A121G A150C — lower, -3.82
- A12U A39U U55A G68A C96U U145G — lower, ≤ -4.2
- U13A C76U C105G C114U — lower, ≤ -4.2
- A12U A26U G46C C57U C93U C125G U127G A138G — lower, ≤ -4.2
- A12U A39U U53G G126U — lower, -4.09
- A12U G92U C125U — within 0.2 log units, -1.06
- A12U G50A U53A C87U G136A — lower, ≤ -4.2
- A12U A17G A23G C35U G83A C87G G136U — lower, ≤ -4.2
- A12U C18U A47G C85A C93A A98C A121U — lower, ≤ -4.2
- U13C G50U G86C A89U C96A C116A — lower, ≤ -4.2
- A12U A23U U45C A97G A98U C131G C132U — lower, -4.12
- U13A A24U C87A C123A — lower, ≤ -4.2
- U13C U31G C32G C76U C131G — lower, ≤ -4.2
- U13G A29U C38G G70U G117U A120U C149U — lower, ≤ -4.2
- U13A U15C A26C C93A — lower, -3.05
- U13C C54U C103U — lower, -1.54
- A12G U144G — higher, 0.592
- U13C C36A C85G C99A A138C — lower, ≤ -4.2
- A12U C36U G84U — lower, -4.11
- U13A A22U A41C U53G — lower, -2.31
- A12U C18G C63G G83U U111G — lower, ≤ -4.2
- A12U A20G A21C U31A C35G G86U A91G A119U G128C — lower, -3.91
- A12U A49U C54G C93G — lower, ≤ -4.2
- A12G U56G C96U A120U — higher, -0.669
- A12G U55A C76A C93A A120G — lower, -3.73
- A12G U45A C57G U78A G80U C103A C118G — lower, ≤ -4.2
- A12G G92C A107G G133U — lower, ≤ -4.2
- U13C U148C — lower, -2.48
- A12U G58A C85G A106G A137U A150C — lower, ≤ -4.2
- A12U G42C C72G C76A A91U A120U U144C — lower, ≤ -4.2
- A12U G25C C35U U77G G94U — lower, ≤ -4.2
- U13G A21U C96U G133C A147C — lower, -4.05
- U13C A26U U56A G58C C63A G74U G88C A97U — lower, ≤ -4.2
- A12G G83A G133C G143A U146G — lower, -3.34
- A12G G70A C118U — lower, -3.56
- U13C C18G A21U A40C U53G A60U U61A G94U G100A G126A — lower, ≤ -4.2
- U13G A21C C27A U55A C99A C103G — lower, ≤ -4.2
- U13G A30C C85A — lower, ≤ -4.2
- A12G G84A — higher, -0.68
- A12G U55C C57G C87G A121G U148A A150C — lower, ≤ -4.2
- U13A A28U C43U G65A A106G — lower, ≤ -4.2
- A12G G25A C87G C116A U148G — lower, ≤ -4.2
- A12U A17U C18U G34A A64G C87G — lower, ≤ -4.2
- A12G G48A G71A G86A G126U C131A G140U C149A A150G — lower, ≤ -4.2
- A12U A91U A120G U146A — lower, -4.18
- A12G G58A G81C G84A G133C U144G — within 0.2 log units, -1.22
- U13C C57A G58A A66G U82G C116U — lower, ≤ -4.2
- A12U C54A — lower, -1.78
- A12U C27G C36U C131U — lower, ≤ -4.2
- A12U C14A G42A C96G U111G A122U — lower, ≤ -4.2
- U13C A21G U31C G42A A52C C95A C129G — lower, ≤ -4.2
- A12G G42A G62A U101C C105G U134G — lower, ≤ -4.2
- A12U A40C G92A C118G — lower, -3.87
- U13G A21U C57U G68A A73U G92C C103A — lower, ≤ -4.2
- A12U A20G A52U G141A — lower, -3.17
- A12U G84A — within 0.2 log units, -1.05
- A12G G70A C85U C105G C116A — lower, ≤ -4.2
- U13C C14G C57A U101G — within 0.2 log units, -1.23
- A12U C27U C38U G59U C63A C93A — lower, -4.12
- A12U C14U A121U C125U — higher, -0.306
- A12U C32G G100A C129A U144G — lower, ≤ -4.2
- U13A U45A U56A G74A — lower, ≤ -4.2
- A12U C14G A29C C32U U45A G80C — lower, ≤ -4.2
- U13G A19C A29G G50C U127C — lower, ≤ -4.2
- A12U G58U A60U G86C A107U G133U C149G — lower, ≤ -4.2
- A12U C14G — lower, -2.05
- A12U U15G U56A G71C G84A G117U A120U A147U — lower, -3.53
